In the Immune Epitope Database (IEDB):

Legend:
[1] = target: HLA-B*51:01; experiment: IEDB peptide-MHC binding, purified MHC/direct/fluorescence; filed as Kd, often an IC50 or EC50 that approximates it; ≥ and ≤ were set here for values at or beyond the usual limits of such assays
[2] = target: HLA-B*07:02; experiment: as above
[3] = target: HLA-B*15:01; experiment: as above
[4] = target: HLA-A*02:12; experiment: IEDB peptide-MHC binding, purified MHC/competitive/fluorescence; filed as Kd, often an IC50 or EC50 that approximates it; ≥ and ≤ were set here for values at or beyond the usual limits of such assays; conditions: source organism: Entamoeba histolytica HM-1:IMSS
[5] = target: HLA-A*24:02; experiment: IEDB peptide-MHC binding, purified MHC/direct/fluorescence; filed as Kd, often an IC50 or EC50 that approximates it; ≥ and ≤ were set here for values at or beyond the usual limits of such assays
[6] = target: HLA-A*02:03; experiment: as above
[7] = target: HLA-A*02:11; experiment: as above
[8] = target: HLA-A*02:12; experiment: as above
[9] = target: HLA-A*02:16; experiment: as above
[10] = target: HLA-A*02:19; experiment: as above
[11] = target: HLA-A*03:01; experiment: as above
[12] = target: HLA-A*24:03; experiment: as above
[13] = target: HLA-A*29:02; experiment: as above
[14] = target: HLA-A*68:02; experiment: as above
[15] = target: HLA-A*02:01; experiment: IEDB peptide-MHC binding, purified MHC/competitive/fluorescence; filed as Kd, often an IC50 or EC50 that approximates it; ≥ and ≤ were set here for values at or beyond the usual limits of such assays
[16] = target: HLA-A*26:01; experiment: as above
[17] = target: HLA-A*69:01; experiment: as above
[18] = target: HLA-B*15:01; experiment: as above
[19] = target: HLA-B*18:01; experiment: as above
[20] = target: HLA-B*27:03; experiment: as above
[21] = target: HLA-B*39:01; experiment: as above
[22] = target: HLA-B*46:01; experiment: as above
[23] = target: HLA-B*58:01; experiment: as above; conditions: source organism: Orthohantavirus andesense
[24] = target: HLA-A*11:01; experiment: as above; conditions: source organism: Influenza A virus (A/goose/Hong Kong/739.2/2002(H5N1))
[25] = target: HLA-A*23:01; experiment: IEDB peptide-MHC binding, purified MHC/direct/fluorescence; filed as Kd, often an IC50 or EC50 that approximates it; ≥ and ≤ were set here for values at or beyond the usual limits of such assays; conditions: source organism: Zaire ebolavirus
[26] = target: HLA-A*31:01; experiment: IEDB peptide-MHC binding, purified MHC/competitive/fluorescence; filed as Kd, often an IC50 or EC50 that approximates it; ≥ and ≤ were set here for values at or beyond the usual limits of such assays; conditions: source organism: Zaire ebolavirus
[27] = target: HLA-B*15:17; experiment: as above; conditions: source organism: Zaire ebolavirus
[28] = target: HLA-B*51:01; experiment: as above; conditions: source organism: Zaire ebolavirus
[29] = target: HLA-B*57:01; experiment: as above; conditions: source organism: Zaire ebolavirus
[30] = source organism: Yersinia pestis
[31] = source organism: Burkholderia mallei
[32] = source organism: Orthohantavirus andesense
[33] = source organism: Zaire ebolavirus

## GPAEARKVC
[1]; source organism: Yellow fever virus
  Kd: ≥ 20 µM

## TPFEVETRL
[2]; [30]
  Kd: 0.836 µM
[3]; source organism: Yersinia pestis CA88-4125
  Kd: ≥ 20 µM
[1]; [30]
  Kd: ≥ 20 µM

## NPVDGSIWY
[2]; [31]
  Kd: ≥ 20 µM
[3]; source organism: Burkholderia mallei ATCC 23344
  Kd: ≥ 20 µM
[1]; [31]
  Kd: ≥ 20 µM

## NQNDNEETV
[4]
  Kd: 0.0404 µM

## IYPEWYFLW
[5]; source organism: Campylobacter jejuni subsp. jejuni 81116
  Kd: ≤ 0.001 µM

## KFITHPFLW
[5]; source organism: Entamoeba histolytica HM-1:IMSS
  Kd: ≤ 0.001 µM

## NALEKALRW
[6]; [32]
  Kd: ≥ 20 µM
[7]; [32]
  Kd: ≥ 20 µM
[8]; [32]
  Kd: ≥ 20 µM
[9]; [32]
  Kd: ≥ 20 µM
[10]; [32]
  Kd: ≥ 20 µM
[11]; [32]
  Kd: ≥ 20 µM
[12]; [32]
  Kd: ≥ 20 µM
[13]; [32]
  Kd: ≥ 20 µM
[14]; [32]
  Kd: ≥ 20 µM
[15]; [32]
  Kd: ≥ 20 µM
[16]; [32]
  Kd: ≥ 20 µM
[17]; [32]
  Kd: ≥ 20 µM
[18]; [32]
  Kd: ≥ 20 µM
[19]; [32]
  Kd: ≥ 20 µM
[20]; [32]
  Kd: ≥ 20 µM
[21]; [32]
  Kd: ≥ 20 µM
[22]; [32]
  Kd: ≥ 20 µM
[23]
  Kd: 0.0255 µM

## ASYKIFRIEK
[24]
  Kd: 0.0009 µM

## GIVSSMHYK
[6]; [33]
  Kd: ≥ 20 µM
[7]; [33]
  Kd: ≥ 20 µM
[8]; [33]
  Kd: ≥ 20 µM
[9]; [33]
  Kd: ≥ 20 µM
[10]; [33]
  Kd: ≥ 20 µM
[11]; source organism: Sudan ebolavirus - Maleo (1979)
  Kd: 1.38 µM
[25]
  Kd: ≥ 20 µM
[12]; [33]
  Kd: ≥ 20 µM
[13]; [33]
  Kd: ≥ 20 µM
[14]; [33]
  Kd: ≥ 20 µM
[15]; [33]
  Kd: ≥ 20 µM
[16]; [33]
  Kd: ≥ 20 µM
[26]
  Kd: ≥ 20 µM
[17]; [33]
  Kd: ≥ 20 µM
[18]; [33]
  Kd: ≥ 20 µM
[27]
  Kd: ≥ 20 µM
[19]; [33]
  Kd: ≥ 20 µM
[20]; [33]
  Kd: ≥ 20 µM
[21]; [33]
  Kd: ≥ 20 µM
[22]; [33]
  Kd: ≥ 20 µM
[28]
  Kd: ≥ 20 µM
[29]
  Kd: ≥ 20 µM
